{"source": "paper PMC6127644", "molecules": {"B1": {"name": "endogenous calneuron-1 of mouse primary neurons (natural protein)", "chain": "MRLPEQPGDGKPENETKGDQETPERGEEPRRSPAPDFPTWEKMPFHHVTAGLLYKGNYLNRSLSAGSDSEQLANISVEELDEIREAFRVLDRDGNGFISKQELGMAMRSLGYMPSEVELAIIMQRLDMDGDGQVDFDEFMTILGPKLVSSEGRDGFLGNTIDSIFWQFDMQRVTLEELKHILYHAFRDHLTMKDIENIIINEEESLNETSGNCQTEFEGVHSQKQNRQTCVRKSLICAFAMAFIISVMLIAANQILRSGME"}}, "key": {"[1]": {"biological_target": "GluN1Rluc expressed without GluN2 (human) (UniProt Q05586)", "test": "FRET or BRET; BRET^1 saturation in HEK-293T cells: constant GluN1Rluc cDNA (0.3 ug) without GluN2, increasing cDNA of the YFP-fused calcium sensor"}, "[2]": {"biological_target": "NMDAR reconstituted from GluN1Rluc and GluN2B (human) (UniProt Q05586)", "test": "FRET or BRET; BRET^2 saturation in HEK-293T cells: constant GluN1-RLuc and GluN2B cDNA, increasing NCS1-GFP^2 cDNA; 5 uM Deep Blue C"}, "[3]": {"biological_target": "endogenous NMDAR of mouse primary neurons and microglia (mouse (endogenous in primary neurons and microglia)) (UniProt P35438)", "test": "proximity ligation; in situ PLA on primary neurons from non-transgenic control embryos; percent of cells with red dots and dots per cell counted (Figure 5C,D)"}, "[4]": {"biological_target": "endogenous NMDAR of mouse primary neurons and microglia (mouse (endogenous in primary neurons and microglia)) (UniProt P35438)", "test": "proximity ligation; in situ PLA on primary neurons from APP_(Sw,Ind) transgenic embryos; percent of cells with red dots and dots per cell counted (Figure 5C,D)"}, "[5]": {"biological_target": "endogenous NMDAR of mouse primary neurons and microglia (mouse (endogenous in primary neurons and microglia)) (UniProt P35438)", "test": "proximity ligation; in situ PLA on primary microglia from non-transgenic control mice; percent of cells with red dots and dots per cell counted (Figure 6B,C)"}, "[6]": {"biological_target": "endogenous NMDAR of mouse primary neurons and microglia (mouse (endogenous in primary neurons and microglia)) (UniProt P35438)", "test": "proximity ligation; in situ PLA on primary microglia from APP_(Sw,Ind) transgenic mice; percent of cells with red dots and dots per cell counted (Figure 6B,C)"}}, "data": [{"molecule": "CaM-YFP fusion protein (from UniProt P0DP23 1-149) (natural protein)", "values": [{"measurement": "BRET50", "setting": "[1]", "result": 3.5}]}, {"molecule": "NCS1GFP^2 fusion protein (from UniProt P62166 1-190) (natural protein)", "values": [{"measurement": "BRET50", "setting": "[2]", "result": 35}]}, {"molecule": "NCS1YFP fusion protein (from UniProt P62166 1-190) (natural protein)", "values": [{"measurement": "BRET50", "setting": "[1]", "result": 30}]}, {"molecule": "endogenous NCS1 of mouse primary neurons and microglia (from UniProt Q8BNY6 1-190) (natural protein)", "values": [{"measurement": "PLA clusters per cell (clusters per cell)", "setting": "[3]", "result": 2}, {"measurement": "percent of neurons with PLA complexes", "setting": "[3]", "result": 21, "unit": "%"}, {"measurement": "PLA clusters per cell (clusters per cell)", "setting": "[4]", "result": 5.5}, {"measurement": "percent of neurons with PLA complexes", "setting": "[4]", "result": 68, "unit": "%"}]}, {"molecule": "endogenous calmodulin of mouse primary neurons and microglia (from UniProt P0DP26 1-149) (natural protein)", "values": [{"measurement": "PLA red dots per cell containing dots (red dots/cell containing dots)", "setting": "[5]", "result": 3}, {"measurement": "percent of microglial cells with PLA complexes", "setting": "[5]", "result": 35, "unit": "%"}, {"measurement": "percent of neurons with PLA complexes", "setting": "[3]", "result": 77, "unit": "%"}, {"measurement": "PLA red dots per cell containing dots (red dots/cell containing dots)", "setting": "[6]", "result": 6}, {"measurement": "percent of microglial cells with PLA complexes", "setting": "[6]", "result": 65, "unit": "%"}]}, {"molecule": "B1", "values": [{"measurement": "percent of neurons with PLA complexes", "setting": "[3]", "result": 14, "unit": "%"}]}]}
